One molecule from US10828326B2, “Compositions and methods for treating and preventing venom related poisoning” (priority 2015, dated 2020) can be followed below.

The test system of this assay is human plasma. The assay can be described thus: Thrombelastography of human plasma exposed to Crotalus atrox venom and/or tPA (Example II). Type of assay: biochemical. Conditions: 0.5 μg/ml venom 5 min and/or 100 IU/ml tPA. Here is the method:
Two hundred mg of lyophilized, pooled venom was obtained from four western diamondback rattlesnakes (Crotalus atrox) for experimentation. Venom was reconstituted in calcium-free phosphate buffered saline (PBS, Sigma-Aldrich, Saint Louis, Mo., USA) at a concentration of 20 mg/ml, aliquoted, and then stored at −80° C. until experimentation at the University of Arizona.
Pooled normal plasma (George King Bio-Medical, Overland Park, Kans., USA) anticoagulated with sodium citrate was rapidly thawed at 37° C. and used for experimentation. To assess the effects of pretreatment of antifibrinolytic plasma proteins with iron, CO, or both, 1% additions of PBS, ferric chloride (FeCl3, 99.9% pure, Sigma-Aldrich, Saint Louis, Mo., USA) in PBS, or CORM-2 (tricarbonyldichlororuthenium (II) dimer, a CO releasing molecule, Sigma-Aldrich, Saint Louis, Mo., USA) dissolved in dimethyl sulfoxide (DMSO, Sigma-Aldrich, Saint Louis, Mo., USA) were used. […] Plasma was exposed to these various agents for at least 5 min prior to incubations with venom.
The final volume for all subsequently described plasma sample mixtures was 359.4 μl. […] The following elastic modulus-based parameters previously described (see, Nielsen V G, Pretorius E. Blood Coagul Fibrinolysis 2014; 25:695-702) were determined: time to maximum rate of thrombus generation (TMRTG): this is the time interval (min) observed prior to maximum speed of clot growth; maximum rate of thrombus generation (MRTG): this is the maximum velocity of clot growth observed (dynes/cm^2/sec); total thrombus generation (TTG, dynes/cm^2), the final viscoelastic resistance observed after clot formation; time to maximum rate of lysis (TMRL, min), maximum rate of lysis (MRL, dynes/cm^2/sec) and CLT (min). […]

The mark [1] stands for this setting: vs control conditions (combination: vs all other conditions).

B1: tPA: tissue type plasminogen activator, 580 IU/μg, Genentech; 100 IU/ml final concentration (protein, UniProt P00750 36-562, looked up)
Tissue-type plasminogen …: SYQVICRDEKTQMIYQQHQSWLRPVLRSNRVEYCWCNSGRAQCHSVPVKSCSEPRCFNGGTCQQALYFSDFVCQCPEGFAGKCCEIDTRATCYEDQGISYRGTWSTAESGAECTNWNSSALAQKPYSGRRPDAIRLGLGNHNYCRNPDRDSKPWCYVFKAGKYSSEFCSTPACSEGNSDCYFGNGSAYRGTHSLTESGASCLPWNSMILIGKVYTAQNPSAQALGLGKHNYCRNPDGDAKPWCHVLKNRRLTWEYCDVPSCSTCGLRQYSQPQFRIKGGLFADIASHPWQAAIFAKHRRSPGERFLCGGILISSCWILSAAHCFQERFPPHHLTVILGRTYRVVPGEEEQKFEVEKYIVHKEFDDDTYDNDIALLQLKSDSSRCAQESSVVRTVCLPPADLQLPDWTECELSGYGKHEALSPFYSERLKEAHVRLYPSSRCTSQHLLNRTVTDNMLCAGDTRSGGPQANLHDACQGDSGGPLVCLNDGRMTLVGIISWGLGCGQKDVPGVYTKVTNYLDWIRDNMRP
As to B1, under setting [1], the “maximum rate of thrombus generation (MRTG)” value is reported as “did not decrease” and the “total thrombus generation (TTG)” value is reported as “significantly decreased”. In addition, the “time to maximum rate of thrombus generation (TMRTG)” value (vs control conditions (combination: vs any other condition)) is given as “did not prolong”.
